Laboratory results as given in paper PMC4885069.
Values joined by “and” are separate entries in the source; they are usually repeats but may differ in a detail not shown here. Identical values can stand only once. Like-named read-outs stand apart in the source and are kept apart here.

Experiments:
[1] = molecular target: synaptotagmin LD (Rattus norvegicus) (UniProt P29101); assay: ITC; settings: cited from earlier work
[2] = molecular target: GST-hSV2C 455-579 (human synaptic vesicle glycoprotein 2C, luminal domain 4, GST fusion) (UniProt Q496J9); assay: SPR (Biacore X100), kinetic evaluation; settings: pH 7.3; 25 °C; PBS (composition not given) at pH 7.3; PBS (pH 7.3)
Sequence of UniProt Q496J9 (Q496J9 whole entry, the tested form may be a part): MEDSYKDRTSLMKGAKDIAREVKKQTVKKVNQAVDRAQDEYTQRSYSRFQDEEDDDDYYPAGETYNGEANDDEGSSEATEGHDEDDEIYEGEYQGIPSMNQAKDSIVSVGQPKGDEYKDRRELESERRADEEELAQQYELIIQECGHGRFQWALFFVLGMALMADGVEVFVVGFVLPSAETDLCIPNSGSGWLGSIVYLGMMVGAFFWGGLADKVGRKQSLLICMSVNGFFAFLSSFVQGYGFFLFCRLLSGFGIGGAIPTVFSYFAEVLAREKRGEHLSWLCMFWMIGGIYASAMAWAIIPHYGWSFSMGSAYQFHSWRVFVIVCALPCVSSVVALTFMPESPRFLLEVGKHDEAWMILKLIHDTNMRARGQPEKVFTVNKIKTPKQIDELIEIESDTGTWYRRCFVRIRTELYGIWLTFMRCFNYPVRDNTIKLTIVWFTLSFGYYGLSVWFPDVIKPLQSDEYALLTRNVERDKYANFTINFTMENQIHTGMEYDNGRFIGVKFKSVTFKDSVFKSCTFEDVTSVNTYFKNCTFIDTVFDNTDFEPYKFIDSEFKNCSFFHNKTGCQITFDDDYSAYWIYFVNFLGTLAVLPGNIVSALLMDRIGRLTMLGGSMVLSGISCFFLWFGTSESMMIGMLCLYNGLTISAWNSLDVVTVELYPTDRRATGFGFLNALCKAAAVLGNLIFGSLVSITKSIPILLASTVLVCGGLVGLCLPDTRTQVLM

[3] = molecular target: GST-hSV2C 455-579 (human synaptic vesicle glycoprotein 2C, luminal domain 4, GST fusion) (UniProt Q496J9); settings: 25 °C, PBS (composition not given) at pH 7.3, 150 mM NaCl at pH 5.0

Sequence of UniProt P29101 (P29101 1-60): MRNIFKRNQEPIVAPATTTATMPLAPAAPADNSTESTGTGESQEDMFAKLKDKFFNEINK

| Substance | Kd [1] | KD Kinetics [2] [nM] | ka [2] [M⁻¹ s⁻¹] | kd [2] [s⁻¹] | KD Steady State ([3]; pH 5.0) [nM] | KD Steady State ([3]; pH 7.3) [nM] |
| --- | --- | --- | --- | --- | --- | --- |
| BoNT/B (from UniProt P10844) | 140 nM and 34 nM | – | – | – | – | – |
| Botulinum neurotoxin serotype A HC fragment (HCA / HCAS), 50 kDa cell-binding domain | – | 390 | 310000 | 0.12 | > 1200 | 400 |
